Experimental data as given in patent publication US5854204A, “Aβ peptides that modulate β-amyloid aggregation” (priority 1996, dated 1998).

Assays:
Aβ peptide = Aβ peptide (Homo sapiens, UniProt P05067); details: Camilleri et al. (1994); cited from earlier work
natural β-AP (β-AP1-40) = target: T1, natural β-AP (β-AP1-40) (Homo sapiens, UniProt P05067); experiment: Optical density (turbidity, A400 nm) aggregation assay; assay type: biochemical
T1 construct: Natural β-AP (β-AP1-40) was obtained commercially from Bachem (Torrance, Calif.); purchased Bachem (Torrance, Calif.)
T1 sequence (P05067 672-711): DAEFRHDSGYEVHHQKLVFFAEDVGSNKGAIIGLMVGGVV
Procedure: In one assay, β-AP aggregation was measured by determining the increase in turbidity of a solution of natural β-AP over time in the absence or presence of various concentrations of the modulator. Turbidity of the solution was quantitated by determining the optical density at 400 nm (A400 nm) of the solution over time.
The aggregation of natural β-AP in the absence of modulator was determined as follows. β-AP1-40 was dissolved in hexafluoro isopropanol (HFIP; Aldrich Chemical Co., Inc.) at 2 mg/ml. Aliquots of the HFIP solution (87 μl) were transferred to individual 10 mm×75 mm test tubes. A stream of argon gas was passed through each tube to evaporate the HFIP. To the resulting thin film of peptide, dimethylsulfoxide (DMSO; Aldrich Chemical Co., Inc.) (25 μl) was added to dissolve the peptide. A 2 mm×7 mm TEFLON™-coated magnetic stir bar was added to each tube. Buffer (475 μL of 100 mM NaCl, 10 mM sodium phosphate, pH 7.4) was added to the DMSO solution with stirring. The resulting mixture was stirred continuously and the optical density was monitored at 400 nm to observe the formation of insoluble peptide aggregates.
Alternatively, β-AP1-40 was dissolved in DMSO as described above at 1.6 mM (6.9 mg/ml) and aliquots (25 μl) were added to stirred buffer (475 μl), followed by monitoring of absorbance at 400 nm. […]

β-AP1-40 = target: T2, β-AP1-40 (Homo sapiens, UniProt P05067); experiment: Static aggregation assay (SDS-PAGE); assay type: biochemical
T2 construct: Natural β-AP (β-AP1-40) was obtained commercially from Bachem (Torrance, Calif.); purchased Bachem (Torrance, Calif.)
T2 sequence (P05067 672-711): as above
Procedure: In a third assay, β-AP aggregation was measured by visualization of the peptide aggregates using SDS-polyacrylamide gel electrophoresis (SDS-PAGE). In this assay, β-AP solutions were allowed to aggregate over a period of time and then aliquots of the reaction were run on a standard SDS-PAGE gel. Typical solution conditions were 200 μM of β-AP1-40 in PBS at 37° C. for 8 days or 200 μM β-AP1-40 in 0.1M sodium acetate at 37° C. for 3 days. The peptide aggregates were visualized by Coomassie blue staining of the gel or, for β-AP solutions that included a biotinylated β-AP modulator, by western blotting of a filter prepared from the gel with a streptavidin-peroxidase probe, followed by a standard peroxidase assay. The β-AP aggregates are identifiable as high molecular weight, low mobility bands on the gel, which are readily distinguishable from the low molecular weight, high mobility β-AP monomer or dimer bands.

Aβ peptide, sequence (P05067 672-711 limits assumed): as the sequence (P05067 672-711) above

Compound | fibril formation in vitro (Aβ peptide) | aggregation of natural β-AP1-40 (turbidity, optical density at 400 nm) (natural β-AP (β-AP1-40); modulator at 1% in the natural β-AP1-40 solution) | aggregation of natural β-AP1-40 (turbidity, optical density at 400 nm) (natural β-AP (β-AP1-40); modulator at 5% in the natural β-AP1-40 solution) | aggregation of mixture with natural β-AP1-40 (high molecular weight aggregates on SDS-PAGE) (β-AP1-40; mixture of natural β-AP1-40 and modulator) | self-aggregation of the modulator (high molecular weight aggregates on SDS-PAGE) (β-AP1-40; modulator alone, no natural β-AP)
OC[C@H]1O[C@@H]2O[C@H]3[C@H](O)[C@@H](O)[C@@H](O[C@H]4[C@H](O)[C@@H](O)[C@@H](O[C@H]5[C@H](O)[C@@H](O)[C@@H](O[C@H]6[C@H](O)[C@@H](O)[C@@H](O[C@H]7[C@H](O)[C@@H](O)[C@@H](O[C@H]8[C@H](O)[C@@H](O)[C@@H](O[C@H]1[C@H](O)[C@H]2O)O[C@@H]8CO)O[C@@H]7CO)O[C@@H]6CO)O[C@@H]5CO)O[C@@H]4CO)O[C@@H]3CO [β-cyclodextrin] | inhibit fibril formation in vitro | – | – | – | –
N-biotinyl-βAP1-40 | – | markedly inhibited | similarly inhibited aggregation | reduced amounts of the peptide mixture associated into high molecular weight aggregates | few if any high molecular weight aggregates were observed
